Data from article PMC7354515 (Viruses, 2020).

Columns and labels:
[1] = biological target: CuV VP2 (CuV capsid, virus-like particle) (Cutavirus, UniProt A0A1B0VEZ1); test: glycan microarray (CFG v5.[…]), DyLight 488-labelled VLPs; type: binding; conditions: immobilised glycan; PBS/Tween-20, room temperature; weak signal, authors advise caution
[2] = biological target: Tusavirus (TuV) VP2, assembled as virus-like particles (tusavirus (TuV)); test: cryo-EM structure
[3] = biological target: Cutavirus (CuV) VP2, assembled as virus-like particles (cutavirus (CuV)); test: cryo-EM structure

CC(=O)N[C@H]1C(O)O[C@H](CO)[C@@H](O[C@@H]2O[C@H](CO)[C@H](O)[C@H](O)[C@H]2O)[C@@H]1O[C@@H]1O[C@@H](C)[C@@H](O)[C@@H](O)[C@@H]1O (stereo partly drawn) [LeX]
glycan microarray (CFG v5.2), DyLight 488-labelled VLPs [1]: the minimal LeX motif was weakly bound by CuV

Tusavirus (TuV) VP2, assembled as virus-like particles (natural protein)
stoichiometry N [2]: 60

Cutavirus (CuV) VP2, assembled as virus-like particles (natural protein)
stoichiometry N [3]: 60
